Paper PMC9890572
Where “and” joins values, the source holds several entries; their conditions need not be identical. Equal entries are not always repeated.

Target: smBiT–β-arrestin2 (UniProt P32121)
Assay: split reporter

Chain of UniProt P32121 (P32121 whole entry): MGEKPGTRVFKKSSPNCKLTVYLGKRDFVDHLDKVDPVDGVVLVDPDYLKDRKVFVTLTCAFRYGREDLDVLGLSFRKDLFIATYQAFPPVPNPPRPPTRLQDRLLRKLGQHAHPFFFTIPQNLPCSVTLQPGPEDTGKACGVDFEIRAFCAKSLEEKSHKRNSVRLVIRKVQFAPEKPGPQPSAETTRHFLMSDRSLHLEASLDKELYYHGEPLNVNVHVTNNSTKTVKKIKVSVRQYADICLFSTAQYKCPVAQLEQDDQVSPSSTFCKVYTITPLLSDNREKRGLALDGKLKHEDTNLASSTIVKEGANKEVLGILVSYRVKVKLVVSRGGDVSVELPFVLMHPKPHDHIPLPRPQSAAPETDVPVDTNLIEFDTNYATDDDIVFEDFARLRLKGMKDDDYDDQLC

other: -7.6 and -5.9
Substance: Gαi-LgBiT (from UniProt P63096 1-354) (natural protein)
